Test results: PMC9482650, “Quantitative fragmentomics allow affinity mapping of interactomes” (Nature Communications, 2022)

Key:
Experiment in all cases: holdup assay
Parameters in all cases: key: below the threshold = too weak to quantify, mostly under pKd 3.1 to 4
Settings in all cases: plain residues with an end cap or a label only (N-terminal biotin on a linker: ado-ado)
MAGI1_2, Q96QZ7 = target: MAGI1_2, Q96QZ7
DLG2_2, Q15700 = target: DLG2_2, Q15700
LDB3, O75112 = target: LDB3, O75112
MAGI3_2, Q5TCQ9 = target: MAGI3_2, Q5TCQ9
Chain of MAGI3_2, Q5TCQ9 (Q5TCQ9 398-503): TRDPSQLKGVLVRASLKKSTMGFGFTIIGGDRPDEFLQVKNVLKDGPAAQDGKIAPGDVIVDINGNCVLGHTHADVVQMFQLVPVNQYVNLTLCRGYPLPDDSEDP

GRIP1_5, Q9Y3R0 = target: T1, GRIP1_5, Q9Y3R0
T1 sequence (Q9Y3R0 568-668, limits assumed, looked up): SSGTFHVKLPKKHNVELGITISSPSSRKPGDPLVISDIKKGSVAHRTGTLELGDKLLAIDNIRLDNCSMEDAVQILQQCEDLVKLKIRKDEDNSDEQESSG

ARHGEF12, Q9NZN5-2 = target: ARHGEF12, Q9NZN5-2
Chain of ARHGEF12, Q9NZN5-2 (Q9NZN5 other isoform, or with tags, fused parts or gaps): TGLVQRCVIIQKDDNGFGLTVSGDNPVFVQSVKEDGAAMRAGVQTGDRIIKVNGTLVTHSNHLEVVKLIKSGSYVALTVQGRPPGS

GORASP2, Q9H8Y8 = target: GORASP2, Q9H8Y8
RADIL, Q96JH8 = target: T2, RADIL, Q96JH8
T2 sequence (Q96JH8 971-1071, limits assumed, looked up): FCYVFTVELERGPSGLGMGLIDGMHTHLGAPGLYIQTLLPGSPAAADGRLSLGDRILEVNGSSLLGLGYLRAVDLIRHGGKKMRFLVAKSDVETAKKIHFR

MPP6, Q9NZW5 = target: T3, MPP6, Q9NZW5
T3 sequence (Q9NZW5 125-219, limits assumed, looked up): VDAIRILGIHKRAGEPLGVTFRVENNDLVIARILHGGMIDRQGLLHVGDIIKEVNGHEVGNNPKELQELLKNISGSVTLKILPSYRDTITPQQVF

DLG5_1, Q8TDM6 = target: DLG5_1, Q8TDM6
Chain of DLG5_1, Q8TDM6 (Q8TDM6 617-713): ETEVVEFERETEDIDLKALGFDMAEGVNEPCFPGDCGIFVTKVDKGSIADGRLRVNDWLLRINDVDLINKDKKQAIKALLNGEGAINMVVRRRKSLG

APBA1_1, Q02410 = target: T4, APBA1_1, Q02410
T4 sequence (Q02410 651-752, limits assumed, looked up): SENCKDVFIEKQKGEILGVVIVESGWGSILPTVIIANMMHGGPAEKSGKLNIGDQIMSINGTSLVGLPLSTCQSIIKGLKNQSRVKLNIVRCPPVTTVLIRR

PDLIM1, O00151 = target: PDLIM1, O00151
Chain of PDLIM1, O00151 (O00151 1-87): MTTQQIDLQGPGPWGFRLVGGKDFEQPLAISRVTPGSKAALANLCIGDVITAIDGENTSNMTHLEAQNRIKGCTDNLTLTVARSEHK

DLG3_3, Q92796 = target: T5, DLG3_3, Q92796
T5 sequence (Q92796 374-475, limits assumed, looked up): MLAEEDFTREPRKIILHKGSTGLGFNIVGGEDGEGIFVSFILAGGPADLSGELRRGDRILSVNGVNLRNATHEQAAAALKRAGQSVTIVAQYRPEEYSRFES

IL16_1, Q14005 = target: IL16_1, Q14005
Chain of IL16_1, Q14005 (Q14005 210-306): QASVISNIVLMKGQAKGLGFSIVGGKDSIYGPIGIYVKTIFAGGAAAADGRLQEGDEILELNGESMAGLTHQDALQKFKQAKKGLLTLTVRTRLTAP

SIPA1L2, Q9P2F8 = target: T6, SIPA1L2, Q9P2F8
T6 sequence (Q9P2F8 945-1036, limits assumed, looked up): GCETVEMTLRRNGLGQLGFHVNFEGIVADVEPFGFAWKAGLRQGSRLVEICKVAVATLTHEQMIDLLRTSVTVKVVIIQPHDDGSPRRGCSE

TJP2_1, Q9UDY2 = target: TJP2_1, Q9UDY2
Chain of TJP2_1, Q9UDY2 (Q9UDY2 24-128): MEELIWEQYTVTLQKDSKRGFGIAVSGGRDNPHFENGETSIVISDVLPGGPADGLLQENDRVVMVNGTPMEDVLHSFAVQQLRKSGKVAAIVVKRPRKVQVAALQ

GRASP, Q7Z6J2 = target: GRASP, Q7Z6J2
Chain of GRASP, Q7Z6J2 (Q7Z6J2 96-193): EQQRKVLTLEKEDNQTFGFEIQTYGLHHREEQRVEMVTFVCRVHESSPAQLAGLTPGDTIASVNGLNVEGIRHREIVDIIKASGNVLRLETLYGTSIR

DLG3_2, Q92796 = target: T7, DLG3_2, Q92796
T7 sequence (Q92796 221-321, limits assumed, looked up): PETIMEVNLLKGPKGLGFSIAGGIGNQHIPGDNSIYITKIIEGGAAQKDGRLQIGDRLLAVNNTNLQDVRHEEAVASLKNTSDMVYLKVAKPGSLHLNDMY

SHANK1, Q9Y566 = target: T8, SHANK1, Q9Y566
T8 sequence (Q9Y566 658-767, limits assumed, looked up): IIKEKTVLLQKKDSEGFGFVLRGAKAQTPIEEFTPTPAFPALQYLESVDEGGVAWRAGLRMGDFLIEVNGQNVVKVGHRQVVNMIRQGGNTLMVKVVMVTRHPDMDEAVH

FRMPD4, Q14CM0 = target: FRMPD4, Q14CM0
Chain of FRMPD4, Q14CM0 (Q14CM0 67-160): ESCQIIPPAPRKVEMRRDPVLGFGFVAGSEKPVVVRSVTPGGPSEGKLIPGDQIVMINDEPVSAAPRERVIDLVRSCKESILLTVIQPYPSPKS

TJP1_2, Q07157 = target: TJP1_2, Q07157
Chain of TJP1_2, Q07157 (Q07157 181-274): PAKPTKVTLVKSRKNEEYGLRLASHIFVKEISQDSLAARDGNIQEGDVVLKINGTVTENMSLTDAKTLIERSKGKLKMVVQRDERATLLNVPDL

MAGI2_3, Q86UL8 = target: MAGI2_3, Q86UL8
Chain of MAGI2_3, Q86UL8 (Q86UL8 600-682): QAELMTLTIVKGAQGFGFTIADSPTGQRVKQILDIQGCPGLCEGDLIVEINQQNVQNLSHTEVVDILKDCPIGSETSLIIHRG

DLG4_3, P78352 = target: DLG4_3, P78352
Chain of DLG4_3, P78352 (P78352 306-403): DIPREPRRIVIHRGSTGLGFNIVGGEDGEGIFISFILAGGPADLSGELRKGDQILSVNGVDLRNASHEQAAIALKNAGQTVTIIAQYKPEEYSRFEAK

LIN7A, O14910 = target: T9, LIN7A, O14910
T9 sequence (O14910 103-200, limits assumed, looked up): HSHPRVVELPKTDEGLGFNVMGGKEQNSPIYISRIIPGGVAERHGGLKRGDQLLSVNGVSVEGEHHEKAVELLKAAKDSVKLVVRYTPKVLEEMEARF

MPDZ_5, O75970 = target: T10, MPDZ_5, O75970
T10 sequence (O75970 695-796, limits assumed, looked up): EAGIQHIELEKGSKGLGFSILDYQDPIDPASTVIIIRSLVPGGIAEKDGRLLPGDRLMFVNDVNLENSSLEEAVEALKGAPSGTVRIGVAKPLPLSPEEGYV

SCRIB_2, Q14160 = target: SCRIB_2, Q14160
Chain of SCRIB_2, Q14160 (Q14160 857-960): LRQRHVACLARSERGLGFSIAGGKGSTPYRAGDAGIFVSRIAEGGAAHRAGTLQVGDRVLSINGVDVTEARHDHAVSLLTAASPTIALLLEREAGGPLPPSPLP

MAGI2_2, Q86UL8 = target: MAGI2_2, Q86UL8
Chain of MAGI2_2, Q86UL8 (Q86UL8 410-522): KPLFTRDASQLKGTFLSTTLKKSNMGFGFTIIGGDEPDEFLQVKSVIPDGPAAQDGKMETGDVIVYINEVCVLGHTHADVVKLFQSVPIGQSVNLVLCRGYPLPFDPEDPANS

SCRIB_3, Q14160 = target: SCRIB_3, Q14160
Chain of SCRIB_3, Q14160 (Q14160 999-1103): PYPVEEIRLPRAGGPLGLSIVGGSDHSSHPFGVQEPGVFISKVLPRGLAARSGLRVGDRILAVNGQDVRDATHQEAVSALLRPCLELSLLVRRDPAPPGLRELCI

Chain of DLG2_2, Q15700 (Q15700 189-283): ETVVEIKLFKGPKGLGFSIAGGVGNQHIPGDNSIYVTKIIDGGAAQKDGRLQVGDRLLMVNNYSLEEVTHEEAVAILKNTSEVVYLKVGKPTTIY
Chain of MAGI1_2, Q96QZ7 (Q96QZ7 456-580): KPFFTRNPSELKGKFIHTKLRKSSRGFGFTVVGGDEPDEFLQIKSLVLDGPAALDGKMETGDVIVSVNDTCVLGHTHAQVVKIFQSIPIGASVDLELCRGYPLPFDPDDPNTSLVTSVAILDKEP
Chain of LDB3, O75112 (O75112 1-94): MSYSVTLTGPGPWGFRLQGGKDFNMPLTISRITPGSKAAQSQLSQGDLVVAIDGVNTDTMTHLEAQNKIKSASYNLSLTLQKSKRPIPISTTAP

Row | Binder | pKd (MAGI1_2, Q96QZ7) | pKd (DLG2_2, Q15700) | pKd (LDB3, O75112) | pKd (MAGI3_2, Q5TCQ9) | pKd (GRIP1_5, Q9Y3R0) | pKd (ARHGEF12, Q9NZN5-2) | pKd (GORASP2, Q9H8Y8) | pKd (RADIL, Q96JH8) | pKd (MPP6, Q9NZW5) | pKd (DLG5_1, Q8TDM6) | pKd (APBA1_1, Q02410) | pKd (PDLIM1, O00151) | pKd (DLG3_3, Q92796) | pKd (IL16_1, Q14005) | pKd (SIPA1L2, Q9P2F8) | pKd (TJP2_1, Q9UDY2) | pKd (GRASP, Q7Z6J2) | pKd (DLG3_2, Q92796) | pKd (SHANK1, Q9Y566) | pKd (FRMPD4, Q14CM0) | also measured
1 | QRYPGNQTTC [CCL24, O00175] | below the threshold | 3.51 | below the threshold | below the threshold | below the threshold | 4.15 | below the threshold | below the threshold | below the threshold | below the threshold | below the threshold | below the threshold | below the threshold | below the threshold | below the threshold | below the threshold | 3.48 | 4.26 | below the threshold | below the threshold | pKd (TJP1_2, Q07157): below the threshold; pKd (MAGI2_3, Q86UL8): below the threshold; pKd (DLG4_3, P78352): below the threshold; pKd (LIN7A, O14910): below the threshold; pKd (MPDZ_5, O75970): below the threshold; pKd (SCRIB_2, Q14160): below the threshold; pKd (MAGI2_2, Q86UL8): below the threshold; pKd (SCRIB_3, Q14160): 3.64
2 | KLQNPNQSVV [TYRP1, P17643] | below the threshold | 3.86 | below the threshold | 4.46 | below the threshold | 3.92 | 3.73 | 4.05 | below the threshold | below the threshold | below the threshold | below the threshold | below the threshold | 3.94 | below the threshold | below the threshold | 4 | 3.86 | below the threshold | below the threshold | pKd (TJP1_2, Q07157): below the threshold; pKd (MAGI2_3, Q86UL8): below the threshold; pKd (DLG4_3, P78352): below the threshold; pKd (LIN7A, O14910): below the threshold; pKd (MPDZ_5, O75970): below the threshold; pKd (SCRIB_2, Q14160): below the threshold; pKd (MAGI2_2, Q86UL8): 4; pKd (SCRIB_3, Q14160): below the threshold
3 | PKSNSSKEYV [CLDN7, O95471] | below the threshold | below the threshold | below the threshold | below the threshold | below the threshold | below the threshold | 3.6 | 4.07 | below the threshold | below the threshold | below the threshold | below the threshold | below the threshold | below the threshold | below the threshold | 4.28 | below the threshold | below the threshold | below the threshold | below the threshold | pKd (TJP1_2, Q07157): below the threshold; pKd (MAGI2_3, Q86UL8): below the threshold; pKd (DLG4_3, P78352): below the threshold; pKd (LIN7A, O14910): below the threshold; pKd (MPDZ_5, O75970): below the threshold; pKd (SCRIB_2, Q14160): below the threshold; pKd (MAGI2_2, Q86UL8): below the threshold; pKd (SCRIB_3, Q14160): below the threshold
4 | SQPLLVHDDV [KIT, P10721] | below the threshold | below the threshold | below the threshold | below the threshold | below the threshold | below the threshold | below the threshold | below the threshold | below the threshold | below the threshold | below the threshold | below the threshold | below the threshold | below the threshold | below the threshold | below the threshold | below the threshold | below the threshold | below the threshold | below the threshold | pKd (TJP1_2, Q07157): 3.5; pKd (MAGI2_3, Q86UL8): below the threshold; pKd (DLG4_3, P78352): below the threshold; pKd (LIN7A, O14910): below the threshold; pKd (MPDZ_5, O75970): below the threshold; pKd (SCRIB_2, Q14160): below the threshold; pKd (MAGI2_2, Q86UL8): below the threshold; pKd (SCRIB_3, Q14160): below the threshold
5 | EFKQTSSFLV [JAM1, Q9Y624] | below the threshold | below the threshold | below the threshold | below the threshold | below the threshold | below the threshold | 4.83 | 4.62 | below the threshold | below the threshold | below the threshold | below the threshold | below the threshold | below the threshold | below the threshold | below the threshold | 3.56 | 4.2 | below the threshold | 3.76 | pKd (TJP1_2, Q07157): 4.01; pKd (MAGI2_3, Q86UL8): 3.54; pKd (DLG4_3, P78352): below the threshold; pKd (LIN7A, O14910): below the threshold; pKd (MPDZ_5, O75970): below the threshold; pKd (SCRIB_2, Q14160): below the threshold; pKd (MAGI2_2, Q86UL8): 3.72; pKd (SCRIB_3, Q14160): below the threshold
